Experiment: label from the status in PepcDB records
In the case of “KRSHLENALNYALENSETAYNEMFLECDKQFILESWLNDFDLTKDYNETMHLVFSIKDKPDEETMQGLLHSTWESLKIRLPEYKFALVPHAHQDHAHIHCFINKTNQLTRRRLRFKGHEDCKEFFNELRSEFAYRLNDHLLSEEYLYVNEPKLKELDNIKQQLQDLEKEEKALEQIKSPQDEWDLNKALQSEYLQELKYKNKAKALDIQNNHSTPLKQKISEFKIALFNHKDTSDDEKEQLDIDRIDKRKPVSEHLKNTNKHELYELLGFYQKELDKKQNHSAFKNFAILNGLDRDFERETNGYSVLKKKEMLLNKLEHLDKRLLDKNSHLLLAQ”, the protein production is reported as “failed”.
In the case of “KRVFGFVSAKGGDGGSCIAANFAFALSQEPDIHVLAVDISLPFGDLDMYLSGNTHSQDLADISNASDRLDKSLLDTMVQHISPSLDLIPSPATFEKIVNIEPERVSDLIHIAASFYDYIIVDFGASIDHVGVWVLEHLDELCIVTTPSLQSLRRAGQLLKLCKEFEKPISRIEIILNRADTNSRITSDEIEKVIGRPISKRIPQDEDAMQESLLSGQSVLKVAPKSQLSKTIVDWALHLNGV”, the protein production is reported as “not failed”.
In the case of “KSAVTAQSILEKADEIRFPQDSFQVNVAIRTAAPDHAEDLYRYQVLSKGNENSIVMITEPASERGQAILMKGRDLWVFMPSVSQPIRLSLSQRLTGQVANGDIARANFTGDYHPQLLRNESIDDEDYYVLELTGIDRSVTYQKVLLWVNQSNFRPYKAEFYSVSGRLLKTSRYENFDNILGEMRPTRIIMEDALKSGEVSVLDYSDMKLRDLPDKIFTKDYLKRLE”, the protein production is reported as “not failed”.
For “KVDPSDFSDVLIAHTVMKPFPDAPTALYQIKAKGYETVLMTNHSRDLIQSNVINLDHEFDMIITAEDVQTYKPNQKFFDYVNDQLGNDVEKHVHVAVDEVKDLKPAQDAGWNVIKIDRKSEDAS”, the protein production was “failed”.
In the case of “KWIFREPSRTDGDDVYALITECPPLDINSSYCNFLQATHFSKTCVLAEKDGDLAGFISGYQEPDEPNTLFIWQVAVSPRYRGKGLAFSMLTTLLERKNLLHIEFIETTITKANNASWSLFKKIDAQYGNQGQVTTFLDKESHFKGKHDTEYLYRIPL”, the protein production is reported as “failed”.
With “KWLDYDFTSLRKEILDKAFQKSLTQINWIMGGYYLVMESLSFFEYEQSIQSKTVRHLILVFYLLFFMGVIKKLDTYLKEKLYERLEQEQALRYRDMERYSRHIEELYKEVRSFRHDYTNLLTSLRLGIEEEDMEQIKEVYGSVLKDSSQKLQNNKYDLGRLVNIRDKALKSLLAGKFLKARDKNIVFNVEVPEEIQVEGMSLLDFLTIVSILCDNAIEASVEASQPHVSIAFLKNGAQETFIIENSIKEEGIDISEIFSFGASSKGEERGVGLYTVMKIVESHPNTSLNTTCQNQVFRQVLTVIHTE” the protein production was “failed”.
For “LADVKHAQSQALFKEHMLETIFNAIPDLFFLMEVDGMIVDYHTGDQKNLYVAPHQFIGKRMTDLLPQEVVSKFQTHVDKILQQEGMITFEYELTMPHGLVHFEARMSYLPEYNQIVLIIRDIS”, the protein production was “failed”.
With “LAEKAGIGVWSYEPETQRIDWAPDALALMGVSPEDIATPELFLARLPENHRAEVQAAFVHAARTGEGGTLEYRLRANDGRWFTLRATYRTEARPGSGFALKGVSQNITDVARS” the protein production was “failed”.
With “LDALRRYHRQTLQELPMGVCSLAKDQEILMWNKAMEELTGIPAQHVVGSRLSTITNPWKDLLQGFINLPDEHLHKQHLALDGQTRWLNLHKAAIDEPLAPGNSGLVLLVEDLTETQTLEDKLVHSERLASIGRLAAGVAHEIGNPITGI” the protein production was “failed”.
With “LDHITVVTADGKVALNQIGQISMKSPQVILVNMASFPECTAAAIKAIRESGMNLNPEVEGTLIRVPIPKVT” the protein production was “not failed”.
In the case of “LDLQIIMDDLLNLLLKEFKLDLAVIRLVDEKGVLRVRSYSGKGIAGIAGKDWEPEIETYIGEAFLSNRLQFVNDTQYMTKPLTRELMQKEGIKSFAHIPISRKGEPPFGILSVFSRTIVGLFNEPFLNLLESLAGQLAQAVKIVTEMEAKEREREEKERILLENARVVKEMEIAKQIQLSLLPSAPPTLPRH”, the protein production is reported as “failed”.
In the case of “LDPGLQPGQFSADEAGAQLFAQSYQSSAEQVLFQSVAASWAHDTNITAENARRQEEAALLSQEFAEAWGQKAKELYEPIWQQFTDPQLRRIIGAVRTLGSANLPLAKRQQYNALLSQMSRIYSTAKVCLPQKTATCWSLDPDLTNILASSRSYAMLLFAWEGWHNAAGIPLKPLYEDFTALSNEAYKQDGFTDTGAYWRSWYNSPTFEDDLEHLYQQLEPLYLNLHAFVRRALHRRYGDRYINLRGPIPAHLLGDMWAQSWENIYDMVVPFPDKPNLDVTSTMLQQGWQATHMFRVAEEFFTSLELSPMPPEFWEGSMLEKPADGREVVCHASAWDFYNRKDFRIKQCTRVTMDQLSTVHHEMGHIQYYLQYKDLPVSLRRGANPGFHEAIGDVLALSVSTPEHLHKIGLLDRVTNDTESDINYLLKMALEKIAFLPFGYLVDQWRWGVFSGRTPPSRYNFDWWYLRTKYQGICPPVTRNETHFDAGAKFHVPNVTPYIRYFVSFVLQFQFHEALCKEAGYEGPLHQCDIYRSTKAGAKLRKVLRAGSSRPWQEVLKDMVGLDALDAQPLLKYFQLVTQWLQEQNQQNGEVLGWPEYQWHPPLPDNYPEGIDLVTDEAEASKFVEEYDL”, the protein production is reported as “not failed”.
For “LDVGCNQGGFLRKLYDTTPFKEGVGIDLARLSLEKAETLKGERPLTYYLTDKPQETNRTFDTAVSTSVLYLIEDIPQHAQDLKEVLKPGGVYYASFADLTNNPSRQFMDDTINQYGATPSQNHSLKHIVDSFVDAGFEVAVMKEPVPDVIDLTHYSDFYLSPNDYLQTLYEESFLIKASVKEGIGK”, the protein production was “failed”.
With “LEAPRDLEAKEVTPRTALLTWTEPPVRPAGYLLSFHTPGGQTQEILLPGGITSHQLLGLFPSTSYNARLQAMWGQSLLPPVSTSFTTGGLRI” the protein production was “not failed”.
With “LEEFKNSSKLVAAAEKERLDKHLGIPCNNCKQFPIEGKCYKCTECIEYHLCQECFDSYCHLSHTFTFREKRNQKWRSLEKRADEV” the protein production was “not failed”.
With “LEIKQLLNIYRDLQLGHFCAFYQPQKHIDSGGVVAFEALARRVIGKGLYEMPDRFFPILEKYHLIPTLTEVMVRDILTFLMTEDAVLQDITIGVNIPGKMLTDGSFYRLLLSVAEEKQAQHALHRLSVEITEHDLIADFDAAKHEIYKLKSLGIRCALDDFGTGYSGYEYLCEIPFDVVKIDGRYIQSLGKAESSTVILQSMISSIKSLSMQVIAEWVDSDQQYQILQEMGCDLVQGYLVSPAISPQQVLNYLHNKLSP” the protein production was “failed”.
In the case of “LERDEQIRLQDDFLFRSQFNIGNIGIAITGIDQKWIKVNPRLCQMLKYSEDELLHMTWKQLTHPDDLDADVAKFEQMLAGNIDNYELDKRFIAKNGSLVYTHMTVACKRTNHQVLLVISGYLDVTAQTLADRE”, the protein production is reported as “failed”.
For “LERMVQTRRGLEIIIDAASTLYDFKSMQRLAEGVLTQLASLLNVDCAGILVLRDAGDELAVLAGSGCYSRFIGTTGHSNSLDPDLRQMVEEAFRRRKHEFADHRTVLYIRTGSGREVVVLLQAERELSDTDRSLVEIFGSRLSIAFDNVILYRQLHEANTQ”, the protein production was “failed”.
For “LEVLVKTLDSQTRTFIVGAQMNVKEFKEHIAASVSIPSEKQRLIYQGRVLQDDKKLQEYNVGGKVIHLVERAP”, the protein production was “not failed”.
For “LFSDASGEQRLQKIIGQIKKDGSGKDYDCIIGLSGGVDSSYLAVKVKDLGLRPLVVHVDAGWNSELAVSNIEKIVKYCGFDLHTHVINWEEIRDLQLAYMKAAVANQDVPQDHAFFASMYHFAVKNNIKYILSGGNLATEAVFPDTWHG”, the protein production was “failed”.
With “LFTESAKAVLAIAQEEAKYFRHQSVGSEHLLLALVLEPNGIAGKTLRQLNTDTEDIREEIEHLSGYGTMQSPMGNNNLYLPYSPRAKQIFAYAGDEAKRLGAQKIGTEHLLLGLLRDEEILASRILVNLGLSLSKMRQLLLKKMG” the protein production was “failed”.
In the case of “LGINEISSSFFSLLLEILLLESQASLPMLEERVLDWQSSPASSLNSWFSAAPNWAELVLPALQYLAGESRAVPSSFSPFVEFKEKTQQWKLLGQSQDNEKELAALFQLWLETKDQAFCKQENEDSS”, the protein production is reported as “not failed”.
With “LKGEPDCYALSLESSEQLTLEIPLNDSGSAGLGVSLKGNKSRETGTDLGIFIKSIIHGGAAFKDGRLRMNDQLIAVNGETLLGKSNHEAMETLRRSMSMEGNIRGMIQLVILRR” the protein production was “not failed”.
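Further: failed if final PepcDB status was selected cloned or expressed and not failed if soluble or beyond.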
